experiment: soluble on expression in E. coli; label from the status in PepcDB or PDB records

Soluble on expression in E. coli, not soluble:
MQAPVVTETCQTNEEGEQLVLRLRAPVERPRVTWGAGVIDNEHMGRLKSNCCCIYTPPRVWDDPSTWEPEEHETEHCRGHTLPEKKQKPQGGHGSDKDEDKGNCGCDHC, MQARQPTVAPFDTAKLDRLMEEAGIDVIAATSKHNTQYLMGGYKFIFFAAMDAIGHSRYLPMVIYEKGAPDHSAYVGNRMEGAEHQNNPFWTPAVHTATWGTQDAAGLAVEHLKKIGKASGRIGIEPAFLPSDARDLLASRLDGARFVDATHVLERLRAVKTADELAKLRRASELITDSMLATIAAARAGSTKLEIIEQLRREETNRGLHFEYCLLTLGASHNRAGSPQAWAEGEILSIDSGGNYHGYIGDLCRMGVLGEPDAELEDLLAEVERIQQAAFAKVRAGVLGSEMIVAAEAELKASPSAAFTDFFCHGMGLITHEAPFLMTNHPVAYEGIDADKPLEAGNVISVETTMLHPKRGFIKLEDTLAITDKGYEMFGDRGRGWNRGGVLEHHHHHH, MQCALYDAGRCRSCQWITQPIPEQLSAKTADLKNLLADFPVEEWCAPVSGPEQGFRNKAKMVVSGSVEKTLLGMLHRDGTPEDLCDCPLYPASFAPVFAALKPFIARAGLTPYNVARKRGELKYILLTESQSDGGMMLRFVLRSDTKLAQLRKALPWLHEQLPQLKVITVNIQPVHMAIMEGETEIYLTEQQALAERFNDVPLWIRPQSFFQTNPAVASQLYATARDWVRQLPVKHMWDLFCGVGGFGLHCATPDMQLTGIEIAPEAIACAKQSAAELGLTRLQFQALDSTQFATAQGEVPELVLVNPPRRGIGKPLCDYLSTMAPRFIIYSSCNAQTMAKDIRELPGYRIERVQLFDMFPHTAHYEVLTLLVKQ, MQDVFIIGSRGLPAKYGGFETFVEELISHQSSKNIRYHVACLSDTKHKVHFDYKGADCFYLNPPKLGPARVIAYDMMAITYALSYSDQHQIQNPIFYVLGNTVGAFIAPFVKQIHNRGGRFFINPDGLEWKRSKWSRPVQAYLKFSEKQMTRQADLVISDNIGIDRYLKQVYPWSKTCFIAYGTQTQPSRLATADSKVRAYFQTFDIREKDYYLILGRFVPENNYETAIKEFMASSTKRDLVIICNHEGNAYFKQLLAETECDKDPRIKFVGTLYDKELLAYIREQAYAYIHGHEVGGTNPGLLEALAHTNLNLVLGVDFNQSVAKSAALYWTKQKGQLAELINQVDAGFDSDHLGKEAKAIIQEHYTWEKIVGEYEALFLNEH, MQEIEQRIYLAATYDTKGEEAEYLRQLLRRDGVMVVTVDVATSGQGSPAMVSAQEVAACYPQGAQAVFTGERGSAIVAMALAFERYLAGQRDVGAVLGIGGSGGTALVTPAMRALPVGVPKLMVSTMASGNVAPYVGPSDIAMMYSVTDVAGLNRISRRVLANAAGAIAGAFRQARQPIADDGRPAVGITMFGVTTPCVQHVTAALHDRYDCLVFHATGTGGQSMEKLADSGLLAGVLDLTTTEVCDFLFGGVLACTDDRFGAIARSGVPYVGSCGALDMVNFGALDTVPAACRERLLYPHNPQVTLMRTTAQENARQGAWIAERLNRCEGQVRFLIPEGGVSALDAPGQAFYDEAADAALFQALYDHVRQTDRRRLVRVPCHINDPLFARAAVEQFHEISQ, MQHLDLQVVRKALKWSVGGERVWFCTVLTTYGSAPRAPGSLLAVNASGEWIGSLSGGCVEDDFLERVAAGGFPDPAVIVRYGEGDDPNSNIRLPCGGILDVLVENLAPDCDVQAHLRELESALLGQRRLLREVELGSGARSLRDDSSHGPRAERDGECVRLRVGAAQRLLLAGYSSVAHACAEFGKGLGFEVILCDPREEALRGVVLEGIEIRRELPSLFIADGGCHADTAVVALTHDPKIDDLAMLEAVRTEAFYIGVMGSRATSEKRFERLRRIGGLGDAELARIHAPIGLNLGSKTPAEIALAVLADILRIRNGIPRERL, MQHPTTKYVKLSFALIFLFNIASASIFSDDVTEATSSPDTTTTAVAIRAKRQCGGMGGCCGGMSGCGCGSMGMCGQTCCPSAPPPCSCGTPGCMQCVQQTVLVPVTTTTCCKCCQPVCTNACTNGGGCSCGCTRGGCSRKRRSLLAIASEEMSKRGDVMV, MQINKDELIKMGNHLKEARLSKQLTQEELARLSNISQATIVKYENGLRSISKKNDRILSDVLGAESFIKDMIQRKQQVLIDLEKYQTKNIFSREDLSKKLGIEISLLNKFLNQSRPLSKNAIVKITQLLSNEGKEILMDIKQEDGSFKLPIIDKIAMGKRIQEIRKNRGETLEKFGKNFTRPAGKNVVNRWEKGTNIPDIERLMNVAYLGKVAVPYILYGETFSKMLKKGSRISKFEKLDSFRMGLRLRKIRRDYRLEREDFGKFFSPPITKWSMDKYENGKDIPNTDRIIQYAYIGKVSLNFLIYGVN, MQIQKSFKGQSPYGKLYLVATPIGNLDDMTFRAIQTLKEVDWIAAEDTRNTGLLLKHFDISTKQISFHEHNAKEKIPDLIGFLKAGQSIAQVSDAGLPSISDPGHDLVKAAIEEEIAVVTVPGASAGISALIASGLAPQPHIFYGFLPRKSGQQKQFFGLKKDYPETQIFYESPHRVADTLENMLEVYGDRSVVLVRELTKIYEEYQRGTISELLESIAETPLKGECLLIVEGASQGVEEKDEEDLFVEIQTRIQQGVKKNQAIKEVAKIYQWNKSQLYAAYHDWEEKQ, MQKVRSDIMTHRGSHYDLGVKTALWLQTTPLLKNRNKEWRKRIPRFDIDVKETYDIFQIYSPQIWEEIIGMQDVLNLPTKQMILNFGHYRFTDLKDSGCTVYKGRDFLVRNYDYHPATYDGRYLLFQPNDGGLSQIGPTSRVTGRMDGMNEYGLVMAYNFMHRKKPANGFVCYMVGRLILENCKNVTEAIKFLKEVPHRSSFSYILMDRHSNYAIVEVTPRSIDVRYEHICTNHFELLTHENRNYTRESKERLNRVINKTTPSTNKDIAFKLFNDPQYEIYSNLFKSWSGTIHTSLYEPNSLIAWMALGQNSHPTSINFSNWLKGKKLNINYFEGEIDTPLTFATYLEHHHHHH, MQLDTIHKITGTLILKSGLHIGAGDSEMRIGGTDSPVVKDPLTDQPYIPGSSLKGKIRSLLEWRHGLVVATGGAPYSFKHLAQDENNSAGRDVIKLFGGAPDKAEDQLVKNIGPTRLAFWDCPLNGDWKKEAADSRHLLTTEVKSENSINRIAGTAEHPRFIERVIAGARFDFTLTLKVLEGDDLLNTVLLGLRLLELDSLGGSGSRGYGKIKFAELKLDGTDLMEQFHAITPFNQTA, MQMDGSKHMGTGAADAPFYLAQGDECDIFTAAYDNNLPVLLKGPTGCGKTRFVAHMAAKLGRPLYTVACHDDLAAADLIGRYLLKGGETVWVDGPLTRAVREGAICYLDEVVEARKDVTVVLHPLTDDRRILPIDRTGEELEAMPGFMLVASYNPGYQNILKTLKPSTRQRFISLEFDFPAPELEARVVSQESGLPLERCKPLIRLAGKLRGLKGQDLEEGVSTRLVVYAATLIAQGMPTERAILAAMVEPLTDDEDIKRGLLDLTTAVFGLEHHHHHH

Soluble on expression in E. coli, soluble:
MQEKSKMDCHGGISGTIYEYGALTIDGEEYIPFKQYAGKYVLFVNVASYGGLTGQYIELNALQEELAPFGLVILGFPCNQFGKQEPGENSEILPTLKYVRPGGGFVPNFQLFEKGDVNGEKEQKFYTFLKNSCPPTSELLGTSDRLFWEPMKVHDIRWNFEKFLVGPDGIPIMRWHHRTTVSNVKMDILSYMRRQAALGVAENLYFQ, MQERVFHVASPKAKLYSEADQAIRERLKDFPKALRAYEMLVQDPEARSGWNMANYLTMRKLGYNDHGRVHALLTGAASVAILALLSEAGVRLDTVESGAGELEDAYVVVLLSTMLHDLGNQVHRFGHEAFGVVLALPILNRILDKLYPDPEQRTAIRALILHGIYSHDLSPEPLTIEAGITAVADGTDITKGRGRKAFQLGSIDIHSISALAVDEVRILKGEKVPVEIQVTMNNSAGIFQVEETLTKKVLKSPLRPYVTVVAMTDGEGGQDQRIVHRVRLHETEDRFVLD, MQHYLHIRPAPSDNLPLVDLIEHPDPIFDPKEKDLNETLLRSLLGGHYDPGFMATSPPEDRPGGGGGAAGGAEDLAELDQLLRQRPSGAMPSEIKGLEFSEGLAQGKKQRLSKKLRRKLQMWLWSQTFCPVLYAWNDLGSRFWPRYVKVGSCFSKRSCSVPEGMVCKPSKSVHLTVLRWRCQRRGGQRCGWIPIQYPIISECKCSC, MQKLPHSLFFGPAGCGKTTFARVVAKDFGLDFYEFDGGNFKLEDLRKIIENYKNSLYKPLIFIDEIHRLSKTQQEMLLIPMENYRCIVIGASTENPYFVLSSGIRSRSMLFEFKNLGQKDLELLLERVQQKIAFKIEDNAKEFLLKSFDARAMLNLLEFALVLNEKEITLENLKKLRNGVNSEGVSSKDTHYILASALIKSLRGSDVDAAIYYLARLIDAGESADFIARRLIIFASEDISNADPNALNLAVSTLTAVKNIGYPEARIILSQCAVYLASAPKSNSSYNAINKALDYVKNNPALEIPNYLNNNHPEKKNYLYPHNFGGWVKQNYLSANLKFYESKGIGEEARLLENLSKLKNIKS, MQLGISKEQAGTVIGGLAGVAIGSTMGSGNGKIAAALIAGGIGAYVGNRIGHMLDEKDQQALALRTQEVLSQQQTTASAQPVTWKSDHSGATAQIVPGKEYTKTKQVEVKRAPKIQAVPSMKLINEPYVTISDNLNVRAAPNQAGEKVGSLKNHTEFTAVGSTGDWILVGRKGVTVGYVHKNYVEPKAQAVAKRVTPAVNLDELDVAASKETQGFDLDSVQSLPTQTVAAEAACRPVTVSLKSLEHHHHHH, MQLKVPEHQVAGHIAKDGKPGPLVDDKGRFFKPLQGDSRGEIEVKFYESFSSNTEVPEHIHRYFPVYHGTQAVEGSDGAAMMVLENLLAEYTKPSVMDVKMGSRTWYPDASEEYIQKCLKKDTGTTTVSSGFRISGFEVYDHKESSFWKPERKLLRGLDVDGARLTLRKFVSSNSLSDTGSKPDSAFASSVYGGSHGILTQLLELKTWFENQTLYHFNSCSILMVYENESILKGNDDDARPQVKLVDFAHVLDGNGVIDHNFLGGLCSFINFIREILQSPDESADS
